Assays:
[1] = biological target: T1, fusion protein containing the conserved region of RIFIN (PF3D7_1254800) and the transmembrane and … (Plasmodium falciparum); experiment: flow cytometry on transfected 293T cells
T1 construct: also called fusion protein containing a conserved region

[2] = biological target: leukocyte immunoglobulin-like receptor subfamily B member 1 (LILRB1) protein (human, UniProt Q8NHL6 24-650); experiment: flow cytometry on LILRB1 protein-expressing 293T cells, APC-labeled anti-His antibody

| Binder | binding result [1] | binding result [2] |
| --- | --- | --- |
| LILRB1-Fc fusion protein (Fc fusion, Made in 293T cells and purified with Protein A. For flow cytometry it was complexed with an APC-labeled anti IgG Fc antibody; not shown: Fc part) GHLPKPTLWAEPGSVITQGSPVTLRCQGGQETQEYRLYREKKTAPWITRIPQELVKKGQFPIPSITWEHTGRYRCYYGSDTAGRSESSDPLELVVTGAYIKPTLSAQPSPVVNSGGNVTLQCDSQVAFDGFILCKEGEDEHPQCLNSQPHARGSSRAIFSVGPVSPSRRWWYRCYAYDSNSPYEWSLPSDLLELLVLGVSKKPSLSVQPGPIVAPEETLTLQCGSDAGYNRFVLYKDGERDFLQLAGAQPQAGLSQANFTLGPVSRSYGGQYRCYGAHNLSSEWSAPSDPLDILIAGQFYDRVSLSVQPGPTVASGENVTLLCQSQGWMQTFLLTKEGAADDPWRLRSTYQSQKYQAEFPMGPVTSAHAGTYRCYGSQSSKPYLLTHPSDPLELVVSGPSGGPSSPTTGPTSTSAGPEDQPLTPTGSDPQSGLGRHLGV | no binding | – |
| recombinant RIFIN protein (variable region of PF3D7_1254800 with His tag) (ligand, Used in solution, on plates and on latex or Luminex beads; also called RIFIN-1; RIFIN beads) YETINAFIAKTIEELEGIPGITKLFGAKISQFVTPAVFRKPMSLVETILSEKKKLCLCAANKNELLCRGMNPNVPETLPKKIEVAVNEVLSSVNDTWATATTPTTFFTNP | – | binds |
